Test results as given in patent US20250289873A1 (BROADWING BIO, published 2025).
Positions count from the first letter of the chain named. Blank lines part the entries; values can stand above or below the binder they belong to.

Key:
[1] = target: T1, human CFHL3-His (ATX-P-58) (human, UniProt Q02985 19-330); experiment: Carterra LSA biosensor, mAb printed on chip, cutoff set by isotype control
T1 construct: also called human CFHR3 protein; CFHR3; not shown: C-terminal His tag (and linker)
T1 sequence (looked up): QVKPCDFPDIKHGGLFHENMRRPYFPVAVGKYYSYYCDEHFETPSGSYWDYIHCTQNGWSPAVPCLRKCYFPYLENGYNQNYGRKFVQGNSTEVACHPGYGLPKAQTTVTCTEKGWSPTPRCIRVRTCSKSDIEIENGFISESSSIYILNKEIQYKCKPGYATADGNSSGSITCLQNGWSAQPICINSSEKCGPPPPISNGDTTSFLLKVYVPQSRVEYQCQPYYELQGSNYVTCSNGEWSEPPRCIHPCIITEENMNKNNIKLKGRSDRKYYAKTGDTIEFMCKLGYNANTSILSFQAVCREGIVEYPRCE
Method: (§1) Experiments were also conducted to determine the reactivity of the CFHR4 antibodies with the human CFHR3 protein (FIG. 9). The binding experiments were performed on Carterra LSA with a running buffer of PBS pH 7.40, 1% BSA, 0.05% Tween20. Antibodies were covalently printed on an HC30M chip. Chip was activated with 33 mM s-NHS and 133 mM EDC in 100 mM MES pH 5.5 for 7 minutes. Antibodies at 10 mg/ml in acetic acid buffer pH 4.5 were used for printing for 10 min. The printed chip was then quenched with 1 M ethanolamine pH 8.5 for 7 min. For the reactivity assay, ATX-P-58, human CFHL3-His, at 550 nM was tested with 5 min association followed by 15 min dissociation. Results were processed and analyzed in Carterra LSA Kinetics Software. The data was referenced with the interstitial reference spots and double-referenced to a buffer cycle, and then the responses (nm) after association were reported. Isotype control was used to determine the cutoff response for positive binding.
as §1, with “CFHL-1 (Y402H)” for “CFHR3”, “10).” for “9).”, “ATX-P-421,” for “ATX-P-58,”, “CFHL1-Y402H-His,” for “CFHL3-His,”, “380” for “550”

[2] = target: T2, Human CFHL1-Y402H-His (ATX-P-421) (human); experiment: as above
T2 construct: also called human CFHL-1 (Y402H) protein
T2 chain: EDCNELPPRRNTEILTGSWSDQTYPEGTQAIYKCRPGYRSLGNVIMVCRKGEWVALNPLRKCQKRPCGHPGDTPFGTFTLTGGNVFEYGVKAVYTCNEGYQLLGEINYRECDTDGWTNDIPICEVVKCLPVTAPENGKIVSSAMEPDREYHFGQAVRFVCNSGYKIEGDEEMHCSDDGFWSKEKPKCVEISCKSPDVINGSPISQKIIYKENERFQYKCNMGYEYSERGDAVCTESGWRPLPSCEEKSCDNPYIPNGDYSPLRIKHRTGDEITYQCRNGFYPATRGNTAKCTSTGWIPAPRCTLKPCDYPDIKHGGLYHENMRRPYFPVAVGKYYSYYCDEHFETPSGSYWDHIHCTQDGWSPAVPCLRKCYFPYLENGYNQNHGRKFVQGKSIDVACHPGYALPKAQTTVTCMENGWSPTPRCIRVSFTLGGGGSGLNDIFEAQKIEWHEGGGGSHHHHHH
Method: as §1
as §1, with “CFHL-1 (Y402H)” for “CFHR3”, “10).” for “9).”, “ATX-P-421,” for “ATX-P-58,”, “CFHL1-Y402H-His,” for “CFHL3-His,”, “380” for “550”

[3] = target: T2, Human CFHL1-Y402H-His (ATX-P-421); experiment: Carterra LSA biosensor, mAb printed on chip, human CFHL1-Y402H-His at 380 nM
Method: as §1, with “CFHL-1 (Y402H)” for “CFHR3”, “10).” for “9).”, “ATX-P-421,” for “ATX-P-58,”, “CFHL1-Y402H-His,” for “CFHL3-His,”, “380” for “550”

B1: ATX-P-601 (antibody, human IgG1, kappa, N297A, V domains shown)
VH: QVQLVQSGAEVKKPGASVKVSCKASGYTFTSYYMHWVRQAPGQGLEWMGIINPSGGSTNYAQKFQGRLTMTRDTSTNTVYMELSSLRSEDTAVYYCATDQSGGMDVWGKGTTVTVSS
VL: DIQMTQSPSSLSASVGDRVTITCRASQSINIYLNWYQQKPEKDPKLLIYAASSLQSGVPSRFSGSGSGTDFTLTISNLQPEDFATYYCQQSYSTPITFGQGTRLEIKR
binding result [1]: no binding (tested: 550 nM)
binding result [2]: no binding (tested: 380 nM)

B2: ATX-P-591 (antibody, V domains shown)
VH: QVQLVQSGAEVKKPGASVKVSCKASGYTFTSYGISWVRQAPGQGLEWMGWISAYNGNTNYAQKLQGRVTMTTDTSTSTAYMELRSLRSDDTAIYYCTRDLRGTAFDYWGQGTPVTVSS
VL: DIQMTQSPSSLSASVGDRVTITCRASQSINTYLNWYQQKPGKAPKLLIYAASSLQSGVPSRFSGSGSGTDFTLTISSLQPEDFATYSCQHSFTTPFTFGPGTKLEIKR
binding result [1]: no binding (tested: 550 nM)
binding result [3]: binds

B3: ATX-P-607 (antibody, human IgG1, kappa, N297A, V domains shown)
VH: QVQLVQSGAEVKKPGASVKVSCKASGYTFTSYYMHWVRQAPGQGLEWMGIINPSGGSTSYAQKFQGRVTMTRDTSTNTVYMELSSLRSEDTAVYYCARDPEYSSAFDIWGQGTMVTVSS
VL: B2 VL with V19G, N30R, T31S, S87Y, H90Q, F92Y, T93R, F96V, L104V, E105D
binding result [1]: no binding (tested: 550 nM)
binding result [2]: no binding (tested: 380 nM)

B4: ATX-P-602 (antibody, human IgG1, kappa, N297A, V domains shown)
VH: not shown
VL: EIVLTQSPGTLSLSPGERATLSCRASQSVSSSYLAWYQQKPGQAPRLLIYGASSRATGIPDRFSGSGSGTQFTLTISSLQSEDFAVYYCQQYGSSPWTFGQGTKVDIKR
binding result [1]: no binding (tested: 550 nM)
binding result [2]: no binding (tested: 380 nM)

More lines, now with the values ahead:

binding result [1]: no binding (tested: 550 nM)
binding result [2]: no binding (tested: 380 nM)
B5: ATX-P-560 (antibody, human IgG1, kappa, N297A, V domains shown)
VH: QVQLQQSGPGLVKPSQTLSLTCAISGDSVSSNTAAWNWIRQSPSRGLEWLGRTYYRSKWYNDYAVSVKSRITINPDTSKNQFSLQLSSVTPQDTAIYYCASDNWNNGGPGFDPWGQGTLVTVSS
VL: DIQMTQSPSSVSTSVGDRVTITCRASQGISSWLAWYQQKPGKAPKLLISAASSLQSGVPSRFSGSGSGTDFTLTISTLQPEDFASYYCQQANSFPPTFGQGTRVEIKR

binding result [1]: no binding (tested: 550 nM)
binding result [2]: no binding (tested: 380 nM)
B6: ATX-P-598 (antibody, human IgG1, kappa, N297A, V domains shown)
VH: QVQLQESGPGLVKPSGTLSLTCAVSGGSISSSNWWSWVRQSPGKGLEWIGEIYHSGTTNYNPSLKSRVTISVDKSKNQFSLKLSSATAADTAVYYCARDRLRLGESSSDVFDIWGQGTMVTVSS
VL: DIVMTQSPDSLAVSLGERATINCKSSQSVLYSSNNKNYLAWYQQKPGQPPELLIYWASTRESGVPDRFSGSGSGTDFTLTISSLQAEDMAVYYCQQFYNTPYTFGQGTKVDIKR

binding result [1]: no binding (tested: 550 nM)
binding result [2]: no binding (tested: 380 nM)
B7: ATX-P-597 (antibody, human IgG1, kappa, N297A, V domains shown)
VH: QVQLVQSGAEVKKPGASVKVSCKASGYTFTNYYMQWVRQAPGQGLEWLGIIDPSGGSTTYAQKFQGRVTMTRDTSTSTVHMELRSLRSEDTAVYYCARDEGTDRPGWGYWGQGTLVTVSS
VL: DIQMTQSPSSLSASIGDRVTITCRASQSISSYLDWYQRKSGKAPKLLIYAASSLQSGVPSRFSGSGSGTDFTLTISSLQPEDFATYYCQQSYSTPLTFGGGTKVDIKR
